This is an account of results in publication doi:10.1101/2022.02.14.480324.

Residue numbers refer to the chain shown, from its start.

Series [1] has as its target T1, His-OsIRO3 (Oryza sativa (rice), UniProt Q10KL8 1-252).
T1 sequence: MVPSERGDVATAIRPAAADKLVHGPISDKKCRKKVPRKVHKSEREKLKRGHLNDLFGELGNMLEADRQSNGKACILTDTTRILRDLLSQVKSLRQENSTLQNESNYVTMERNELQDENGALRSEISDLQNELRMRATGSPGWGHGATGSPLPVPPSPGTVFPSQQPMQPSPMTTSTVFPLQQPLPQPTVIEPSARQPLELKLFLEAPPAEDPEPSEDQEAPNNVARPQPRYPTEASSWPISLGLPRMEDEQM
Put plainly: EMSA. Background: A gel shift assay detects complexes by their altered migration in electrophoresis.

In series [2] the target is T1, His-OsIRO3. Put plainly: competition.
The target in series [3] is T1, His-OsIRO3. Put plainly: competition. The source holds these as a separate data set.

B1: pOsFIT probe (dsDNA)
DNA 1: TCAAGTAGTATTAGTCAATTGGTCATCACATTTCG
DNA 2: CGAAATGTGATGACCAATTGACTAATACTACTTGA
In the case of B1, the binding result with His-OsIRO3 [1] is on record as “no binding”.

B2: pOsIRO2 probe (dsDNA)
DNA 1: CCTCCCTAGCTTGGCAGAATAGTTAATGTTAATCACCTGATTAAA
DNA 2: TTTAATCAGGTGATTAACATTAACTATTCTGCCAAGCTAGGGAGG
As to B2, in the series with His-OsIRO3 [1], the binding result is recorded as “binds”.

B3: pOsIRO2 unlabeled (Cold-Probe) (dsDNA)
DNA 1: B2 DNA 1
DNA 2: B2 DNA 2
Consider B3, for which, in the series with His-OsIRO3 [2], the binding result is listed as “binds”.

B4: mpOsIRO2 (Cold-Probe-m) (dsDNA)
DNA 1: B2 DNA 1 with C34G, A35T
DNA 2: B2 DNA 2 with T11A, G12C
With B4, the binding result with His-OsIRO3 [3] was “no binding”.
